Laboratory results published in patent publication US20100167342.

Tested on: GlyExendin-4 (Glycine-extended Exendin-4, Exendin-4 precursor with C-terminal glycine)

Row | Substance | N-terminal clipping of GlyExendin-4 (HPLC and LCMS of peptide expressed in STE13-disrupted clone D2) | (N-2) impurity of GlyExendin-4 (HPLC of peptide expressed in DAP2-disrupted Pichia clone)
1 | Pichia pastoris homolog of Saccharomyces cerevisiae STE13 dipeptidyl peptidase | the expressed GlyExendin-4 when checked by HPLC and LCMS was not N-terminally clipped | 
2 | Pichia pastoris homolog of Saccharomyces cerevisiae dipeptidyl peptidase DAP2 |  | This continued to show (N-2) impurity
